# ± gives the half width of the 95% confidence interval.
# Tests used:
# [1] = folding stability dG unfold (combined trypsin and chymotrypsin); higher = more stable
# In short: (§1)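 Mini-proteins designed to be under 80 residues and free of cysteine were carried in a PA-tagged cDNA display construct and digested with trypsin and with chymotrypsin. Each protease was applied at 11 threefold-diluted concentrations, alongside a no-protease condition, before sequencing. K50 came from Bayesian fitting of the sequencing counts, and unfolding free energy was obtained by comparing it with a sequence-predicted unfolded-state K50 and a shared folded-state K50, for each protease separately or for both together. Designs were retained only if their AlphaFold2 dimer inter-PAE exceeded 15.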
# [2] = folding stability dG unfold from trypsin proteolysis; higher = more stable
# In short: as §1
# [3] = folding stability dG unfold from chymotrypsin proteolysis; higher = more stable
# In short: as §1
Sequence,folding stability dG unfold [1] [kcal/mol],folding stability dG unfold [2] [kcal/mol],folding stability dG unfold [3] [kcal/mol]
SAGGMITLTVTREDWDTVYAKLKAEKNVTVKVVKGNTWSTYPASEVKALREEIPADPNEPLTLEIVESAGGS [r16_377_JUSTAS],0.283 ± 0.23,0.0201 ± 0.18,0.382 ± 0.24
SAGGSAGGGMPISISITVTLSDGTVLEFTVTVPENAPDPASVAAALAAEIKAAHPDVAVTFTPASAGGSAGG [r6_132_JUSTAS],1.53 ± 0.077,0.849 ± 0.054,1.72 ± 0.025
SAGGSAMTPEELANVTVEVVTTTEPASPDLTLPDGTRLPPSTTVTTTTEVVVLPGGELLGTRVTVASAGGSA [r15_12_JUSTAS],0.644 ± 0.043,-0.375 ± 0.051,1.03 ± 0.023
SAGGSAMESFLGAAKEVLSQMEPGEIVLLPLERPDDKPLLVLLDPTTRRLVVFYPDGGYEEFDFPESAGGSA [r15_977_TrMRF],2.86 ± 0.079,2.74 ± 0.046,2.9 ± 0.064
SVEELAKKLAELFPNVKVTVTEEEIDGKKVKTIRIENKKTGKTYEITVLPNGEILITDSNGKKFSLEELLSA [r9_1176_TrROS_Hall],4.86 ± 0.25,4.26 ± 0.27,4.91 ± 0.31
SAGGSASSMLSPSLYVTTITVKKPGGMTVTETVPGTPEEVERLIEELKKKGLEVEKVDVVPVSELVSAGGSA [r15_640_JUSTAS],1.66 ± 0.058,1.9 ± 0.062,1.47 ± 0.034
SAGGKKMTFKVDEIQTHGNQIMIPIRFPDGHPFPMQIDDPEQLDNLKPGEEIKIEFRPDGSFRIEWRSAGGS [r16_2_TrROS],1.55 ± 0.17,1.45 ± 0.066,1.65 ± 0.18
SAGGMPYRLDAVRVEVRPRPDGGPLLVVELTYPDGSRETAVFDSPEDLLRALENSPRFSEITLLPSVSAGGS [r16_757_TrMRF],0.739 ± 0.046,1.01 ± 0.017,0.16 ± 0.088
SAGGSAGGSMRIKFEFKIGDKWVEEEIPADLSQLPLSEIKKKHPKAEYKIEIEDEEGNWTPLLSAGGSAGGS [r12_540_JUSTAS],0.767 ± 0.12,0.262 ± 0.11,1.04 ± 0.1
SAGGSGPPVLVRLEVEVLGEPYTLTLPVPASLIHPSQRVRFRVRVVSVDPVNNRVTVRIESVELYPSAGGSA [r2_479_TrMRF],2.98 ± 0.036,2.75 ± 0.065,3.018 ± 0.021
SAGGMKPGEKVLVKITLKKEVFKNENGEEVKVEEKEILIELEVDSLEEALEALKKLLPPGAEIEVLPSAGGS [r16_282_TrROS_Hall],3.24 ± 0.13,3.52 ± 0.13,3.1 ± 0.047
SAGGSAGGSMKKLKITFPPGMTEEELKKKIEELAKKLNLEVVKIKSIEYDKENKEVTITVEIKSAGGSAGGS [r12_131_TrROS_Hall],3.87 ± 0.088,4.2 ± 0.17,3.77 ± 0.059
SAGEKEYVNLPLVVKLPPGVPASLILDAAVKHGAKEVTIVEEPTPDGGMVLHINLVLPKEALPKLLESLSAG [r5_376_TrMRF],4.79 ± 0.3,4.39 ± 0.21,4.61 ± 0.17
SAGGSAGGSKTIVITIEPNVKTPEQLLELLKKIRELSKPGEKIVIIASPEVLEALKKAGLIEESAGGSAGGS [r12_992_TrROS_Hall],3.49 ± 0.097,3.2 ± 0.16,3.7 ± 0.086
SAGGLAEYIARYLQENDPRARVEAEEGDVLDGVRVIRVRVERVDDAFGGDIPSSADFILVIPAGAPPTSAGG [r19_8_TrMRF],1.38 ± 0.089,1.36 ± 0.025,1.38 ± 0.1
SAGGKKEKIVEIKLLDMSYDPENKTVTFKFLVKLENGEEKVIELKISAEDFEKMSLEDILKAVKDFFESAGG [r13_512_TrMRF],4.72 ± 0.15,3.74 ± 0.16,4.83 ± 0.09
SAGGSAGGSAPWLTIIFRMDTPEMAKEIANWLREDGLDIEVETEPDPNDGRFWVMITIQLPNSAGGSAGGSA [r18_455_TrROS],3.96 ± 0.17,3.57 ± 0.16,4.24 ± 0.07
SAGGSAGGSAGGKKKFGFLILVKNKDDEKLYLVEVPEELSLEEFLPDQEIDEEVIKKAIGSAGGSAGGSAGG [r17_412_TrMRF],0.724 ± 0.18,0.823 ± 0.082,0.665 ± 0.27
SAGGSAGGSAGSITLPDGLTLTWNPATNTLTITLTAPPPPTTTTTTKPAATTTTTTTTTTSAGGSAGGSAGG [r11_331_TrROS_Hall],1.87 ± 0.14,2.18 ± 0.086,1.77 ± 0.092
SAGKVKIEVEEVPPNVKKVKVESLEELLEAAKKLPPGAVVEVELEDGSKVTVVLNKDGKVVEVKKEPVPSAG [r5_506_TrROS_Hall],1.58 ± 0.27,2.61 ± 0.35,0.9 ± 0.16
SAGGGSATLVGIFPEKGYLVVLTITTDGDDFSIGELKVTFEPLDDDSVKATFYTPSGQKHDAIGLPVASAGG [r13_515_TrMRF],1.46 ± 0.059,1.54 ± 0.053,1.42 ± 0.1

Sequence,folding stability dG unfold [1] [kcal/mol],folding stability dG unfold [2] [kcal/mol],folding stability dG unfold [3] [kcal/mol]
SAMKFKKGAKIEIEVEKVEEKEIDGKTVAVYRMKIKIEVDGKKYEIEVEIYYDKETKEWKIVKVEIKEVSAG [r14_293_TrROS_Hall],3.33 ± 0.19,3.55 ± 0.33,3.13 ± 0.046
SAGEKTVKIKLPNTKTITVKVKKNEKKILYLPNGEKILITDVKKGKVSLKKGITYVKDKNGKWYPLKYKSAG [r5_417_TrMRF],1.37 ± 0.1,0.332 ± 0.15,1.86 ± 0.079
SAGGSAGGSAGPIVYPYGKYLVVYNPETGALVVVELDPDGKVKKVVVFGKDGPLVELDDASAGGSAGGSAGG [r17_385_TrMRF],3.14 ± 0.047,2.76 ± 0.067,3.369 ± 0.022
SAGLAAAIAAAGAIAEALGVTVRVEVFRDGELVGTFEIPAPVGDGEPVSLEVRLPDPEVTVRFELRIPGSAG [r14_728_TrMRF],2.5 ± 0.11,2.26 ± 0.14,2.51 ± 0.037
SAGGEPPPVRVSFSVEEVTVGAGPVFVRRVVTYDPAEGRVSEFVEVFERGRGGLLGRSSRTVPAEELASAGG [r13_772_TrMRF],4.44 ± 0.16,4.08 ± 0.15,4.7 ± 0.13
SMPLTPEEVEEVVEAVAKELEEETGEEVKAEVFYDPETGRFYAVIELPDGRRVRIEIDPETGEVRVEVEASA [r9_9_TrMRF],4.02 ± 0.1,3.8 ± 0.13,4.17 ± 0.15
SAGGKEVVIVFPLPENFEAEIFIPDRPVVRLENGLLVAVAPENVPALIVIRNPNGEELVLPVELLDLSAGGS [r8_72_TrMRF],1.32 ± 0.084,1.27 ± 0.037,1.28 ± 0.014
SAGAMQTVTLPTPDGRTVTLRHPGISVSVDPEKRTVTISVPSLGKVYTLTFAPDGTVAELSEEPIPELESAG [r5_342_JUSTAS],2.82 ± 0.11,1.53 ± 0.03,3.231 ± 0.025
SAGGSAGGSAGMKVLVLRIRIERPEEELSEEDRAKLPPVRIEIELVEVELPPEVEVREEESAGGSAGGSAGG [r17_310_TrROS_Hall],3.43 ± 0.2,2.44 ± 0.14,3.86 ± 0.11
SAGGSALADRIAELARELGFEPVEIRYDPETGEVYALVRKPGGLLLRMRVEVDDDELHIEIEPLTDSAGGSA [r15_561_TrMRF],5.18 ± 0.095,4.34 ± 0.1,5.27 ± 0.058
SAGGSAGGSAGGGIVIEGDIESIEVEKNPDTDYYLVTVRFKSTDKPYTFVFKKDEKLDVSAGGSAGGSAGGS [r10_819_TrMRF],1.77 ± 0.23,1.49 ± 0.036,2.16 ± 0.21
SAGGSAGGKTIVIDMSIEEIAKKLGLEIVEVKKNKDGSVTITLKNGKKITIKVKSPEDLLKAIKSAGGSAGG [r6_13_TrROS_Hall],2.54 ± 0.29,1.65 ± 0.11,3.03 ± 0.15
SAGGSGSSMSVSVSVTTSPVSVDPNKPVPIEVATTTTPVSSYDPVTGTSSTTTTTTTVPLGNPEAASAGGSA [r2_489_JUSTAS],1.98 ± 0.051,2.62 ± 0.081,1.42 ± 0.044
SAGGGNKPKIKVLLFFPDRVVELEFESPEEFIRALEEAGFPVIPVSEDSKYLVIEFPDGLRALADFSSAGGS [r8_365_TrMRF],2.48 ± 0.046,2.44 ± 0.049,2.476 ± 0.014
SAGGSAGGSAGGPFPFKIDSVEWETTDNKRYYEIKLEFPNGNPVTIHMPPNNPDDVKDAISAGGSAGGSAGG [r7_365_TrROS],0.144 ± 0.2,0.232 ± 0.071,-0.00838 ± 0.25
SSMSSSPLGSDPATGTTYYLSVSNNSTTLSTVTPAPVLPISPEELEKIAKELAKKNPKLAKKAKELAEKLKS [r1_330_JUSTAS],-0.0137 ± 0.3,-0.301 ± 0.2,0.123 ± 0.25
SAGNFKIDINPENNMIMIKSPNGWFMFPFTYTRTQPEPDPDDPNEWKQRPRTETHYIMMPANDLKDLLNSAG [r5_234_TrROS],0.541 ± 0.27,0.679 ± 0.17,0.502 ± 0.24
SAPLSEEEARQLLEEVAEELERETGASYRVELFRDPATGRWFGRIELPDGRVYTVTYDPATGEVTVTVEASA [r9_9_JUSTAS],5.62 ± 0.11,4.25 ± 0.1,5.62 ± 0.069
SAGGMSVTVSTHLSPEELRELVREIVEKNPGLEVKAVEVTDPATGEWRAVPLDEVPADRPVTVRVDLSRSAG [r5_357_JUSTAS],0.495 ± 0.12,0.506 ± 0.091,0.388 ± 0.12
SAGGSAGGKPKPVLRTFEVRDPATGELYKVELVVLDDGSVRALVTRRDGRKREFTFDAPASLILSAGGSAGG [r6_588_TrMRF],1.88 ± 0.047,1.59 ± 0.019,2.08 ± 0.042
SAGKNEVLKVDIEYDPETGIIRLKTTYPNGLKEEKLIFKIPGTGKWYTAWNSEYEEGKEYQDFGILPESAGG [r19_394_TrMRF],2.02 ± 0.12,1.98 ± 0.15,2.35 ± 0.05

# From the supplement of paper PMC12764529
